Values quoted from earlier work in article PMC2709459 (Biochimica et biophysica acta, 2008).

Target: C5aR
Conditions: C5aR in transfected CHO cells

B1: C5a: complement C5a fragment, anaphylatoxin ligand of C5aR (protein, UniProt P01031 678-751, looked up)
C5a anaphylatoxin: TLQKKIEEIAAKYKHSVVKKCCYDGACVNNDETCEQRAARISLGPRCIKAFTECCVVASQLRANISHKDMQLGR
modifications: C5a anaphylatoxin
- Kd: 10 nM
